These are literature values, as cited in US4347323A, “Glycerol kinase from Streptomyces canus” (Toyo Jozo Kabushiki Kaisha, priority 1979, dated 1982).

For the data set the following is noted: known glycerol kinases.

B1: E.Co-GK: known glycerol kinase of Escherichia coli (protein, UniProt P0A6F3 2-502, looked up)
Glycerol kinase: TEKKYIVALDQGTTSSRAVVMDHDANIISVSQREFEQIYPKPGWVEHDPMEIWATQSSTLVEVLAKADISSDQIAAIGITNQRETTIVWEKETGKPIYNAIVWQCRRTAEICEHLKRDGLEDYIRSNTGLVIDPYFSGTKVKWILDHVEGSRERARRGELLFGTVDTWLIWKMTQGRVHVTDYTNASRTMLFNIHTLDWDDKMLEVLDIPREMLPEVRRSSEVYGQTNIGGKGGTRIPISGIAGDQQAALFGQLCVKEGMAKNTYGTGCFMLMNTGEKAVKSENGLLTTIACGPTGEVNYALEGAVFMAGASIQWLRDEMKLINDAYDSEYFATKVQNTNGVYVVPAFTGLGAPYWDPYARGAIFGLTRGVNANHIIRATLESIAYQTRDVLEAMQADSGIRLHALRVDGGAVANNFLMQFQSDILGTRVERPEVREVTALGAAYLAGLAVGFWQNLDELQEKAVIEREFRPGIETTERNYRYAGWKKAVKRAMAWEEHDE
B1: the pH stability is listed as 6.5-7 pH.
